Results as given in paper PMC6381275, “Structure and Mechanism of LcpA, a Phosphotransferase That Mediates Glycosylation of a Gram-Positive Bacterial Cell Wall-Anchored Protein” (mBio, 2019).

Tested on: CC(C)=CCC/C(C)=C/CC/C(C)=C/CO[P@@](=O)(O)OP(=O)(O)O
Experiment: fluorometric inorganic phosphate release assay (pyrophosphatase)
Type: biochemical, Actinomyces oris
Conditions: 20 mM Tris-HCl pH 8.0, 30°C, 24 h, 3 µM enzyme, 0-150 µM FPP

LcpA (eLcpA, recombinant extracellular LCP domain) (Actinomyces oris)
Km: 15.2 ± 3.7 µM
